The record followed here is PMC11093223 (2024).

What all share (experiment): ITC
In one assay the target is T1, SLAMF7 (Homo sapiens (Human), UniProt Q9NQ25).
T1 chain: EDPANTVYSTVE

Another assay concerns the target T2, FAM174C (Homo sapiens (Human), UniProt Q9BVV8).
T2 chain: DSDEETVFES

In another assay the target is T3, CIMPR (Homo sapiens (Human), UniProt P11717).
T3 chain: EEETDENETEWLM

For a further assay, the target named is T4, KIAA0319 (Homo sapiens (Human), UniProt Q5VV43).
T4 chain: ESEFDSDQDTIF

In another assay the target is T5, NPDC1 (Homo sapiens (Human), UniProt Q9NQX5).
T5 chain: DEENEDGDFTVYEC

Another assay addresses T6, CPD (Homo sapiens (Human), UniProt O75976).
T6 chain: EEETLYSSKH

B1: TBC1D23 (protein)
chain: DRKEVVNIQTWINKPDIKHHFPCKEVKESGHMFPSHLLVTATHMYCLREILSRKGLAYIQSRQALNSVVKITSKKKHPELITFKYGNSSASGIEILAIERYLIPNAGDATRAIKQQIMKVLDALES
As to B1, the Kd (in general, the equilibrium constant for the complex coming apart) with SLAMF7 is above 100 µM; with FAM174C, 15.7 µM; with CIMPR it was above 100 µM; in the assay with KIAA0319, 35.2 µM; with NPDC1 it was 2.9 µM; with CPD, 10.6 µM.
